For 15 sequences, protein production results are on record in a protein production outcome set (Wang et al. 2014).
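Also: failed if final PepcDB status was selected cloned or expressed and not failed if soluble or beyond.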

The series is described as follows: label from the status in PepcDB records.
On to “MPSIIDETVFGEPSRRLAVVYLCGALLLAGQQGYYVIIEGATPFYAGLLLSAGMALSGIAESLPKPRRRAAGVLRLTALVVLVSLLVILFVTPDLLTN”, for which the protein production entry is listed as “failed”.
The result for “MPSIISDNPKNWSEEIKNYLCRSSPERYEKMATNNAIEPYISKAISWGYAEWKNRKTLLDDIETEMLRLATLPDLSDFNDNEIYSSKKNYLSKEILENYLIKASPENFNTVFRQPGWKSHVNFLIEKGNRELERQIINGNGVENSVDTVCAELAKLMNDFENSFFDEIYGNSTPRYLLPNLFEKAIAEYKLLATIKERTRFIEAFIEIVMFDWQFSGTLDSDLFKNAYSKEVLYYYGIGARLFVLGEFKEAQEYFKKIINIEPKPIDYLMLSKTYRALNEKVETFNTIKDGLTHFPNDFLLTLALSGTLYWMGETKLANETLEPVKKDFNTMYKSEIEGAKKLAVEISEAIKCDKIYRDQKNDIYDDKYTKKAWYQYWYHYNCFRPTQHPEAYMIDYIPRYLTSIAKDATITLKGVLDFGTLCAEPLYRFAKNNPEIQCVGIDRQDLVKELNDKAYSLNNLRFEAGDIFEYLEHFALLVPNHRMLFHCRTAVLCYPNFLLKLYKKCAELGIEYICLMESNSLSRDTLTFYNYGEMPNISIARRGSLINHDYFLLLEQSGYEIVKKDFHLAPHLLEDYAALIGSNTTLVAQLKLLTQSQ” reads “failed”; that for “MPSLFSLYRKIFFGRKPGWDQQPLPYIKVTAPNVRVSEAKISQYAQVCGFDFDGKLLPPTYLYVMAFRLHAVIFTHDGITFPLLGMIHLKNRIQVYRPAAVDEVFALECALTTSRETDSGLEFEFVSKAFVGEELVWESLSTYLYRIETAGRRVRPPKALDMAWDSPQSWELGEDLGRRYAKASGDYNLIHLHPMLSKRFGFDRVLAHGMWSKARCLAELMPEIGERPFVVDVAFKLPLLMPAEVGFGYEKTEDKWVFELRDSKGRRPHLSGEVQL”, “failed”.
Take “MPSPVEADAKVTMRLRYTKTGAMRYLSHLEMIGLFTRAVGRARLPIRFSQGFHPHPKFSFATALSVGVESWAEYLDMELIPSLTPGEVRDRLNAALPEGMRIVEAVVIPPGTPSLSVLMDKVRYRIILLEEAARDLAARAEAFLARDSFPLRRAKKGRIQEYDLEHHHHHH”: the protein production result is “failed”.
Under “MPSQDYLRVLNPSLSGPTPIAFIILALISAGLLIIIWRNRDLISTDNLRGKIIFIVISAALIFTFGRISFALSEVLIFLWALSILWIRGNTDNIEMNLAMAAWVLAYLYMHSFHPVKADRYIITVLPALAYAISLSLNNLSALMRSRRASTVLSIAVTLLMVSSAIHYTAGWPQEYGIVKGERSGAWLMNHDPSYRDRVIAADRGPAFTWYLGDYVFTRIIHPQRRELSLKYFYEVNPDYYIFWTGKTELPEGYRVIYSRDGVPLPGRFSRYAGILPLRYRIQWMLR” stands “failed”; under “MPSRRRFVLALAAALPAAGLLSACGFHLRGNNDFAFKRLYINLPQNSQMRAQLRRLIDNGSDTVVVSDKQDADAFLDVLSENRVKTISSLTPQGVVREYRITYRFSFQLRDAHDNLLIPPSEITLFRDLSYNETQVLAKDYEEAALYRDMQGDIVNQLVRRLASVRLPSLEHHHHHH”, “failed”.
Under “MPTALGYVSIGLACGIIGAPYVTPVEMGLMSLFVYAGSAQFAMLALIVVQAPVAAIAMTVFLINLRLFLLSLHASTYFRHTSLWYNIGMSSILTDETYGVLMGELAHTDKVNPMWMHGNNLNSYVAWFVGTVVGTALGGLLPNPEIFGLDFALVGMFIGIFASQFQIMQRRIPVRNLLIILAVVAVSFFLLLTVMSQSLAVLFATLLGCSMGVVLDGQ” stands “failed”; under “MPTFLLVNDDGYFSPGINALREALKSLGRVVVVAPDRNLSGVGHSLTFTEPLKMRKIDTDFYTVIDGTPADCVHLGYRVILEEKKPDLVLSGINEGPNLGEDITYSGTVSGAMEGRILGIPSIAFSAFGRENIMFEEIAKVCVDIVKKVLNEGIPEDTYLNVNIPNLRYEEIKGIKVTRQGKRAYKERVFKYIDPYGKPFYWIAAEEFGWHAEEGTDYWAVLNGYVSVTPLHLDLTNYKVMKSIKYLEDSP”, “not failed”.
Under “MPTIRINKLTDPVVFLHILFFLIIASSSLTYWKMSDYAVNQSWDAYFYKYSDYLDLVPTWEKILKDAFSLVLLLASIYFPRRKILDFSPNINLQRYYLSFILLFFLSLSNLFASRDVTNLTLFTIVAVIRPFLITASLLFFCHKHLNFFYFRIILECVNIIGIIQVYHSFLQRNSAIINNGLDWLHSGSARSVGTFADPNTLGRFLALLIMVNLFMLPPNIIRFFLIISYGIALFFTGSRASLLIIGIFILLFVAIKLSRQSIASTRAKNLTFAFLLTVPLLQFLLLRINLISNRADDTASPLQDGRYHILFNLINRLNPYEFIFGNYLGYGSNALILTGYDGSNFLSDSTPASLIGQFGITGLLLFILIVINLFKQTPRHININNSQDYLVLTGDLLQSRNALSFYLIISCFTTIIFESYAVIPILLGLIFYDNLDLKNIKF” stands “failed”; under “MPTLIVLIGPTGVGKTELSLRLAENFHTSIVSADSRQLYAELKIGTAAPTPDQLKRVPHYLVGTLHLTDYYSAAQYEQEAMEILHQLFTEHEVVVLTGGSMMYVDAICKGIDDIPTVDAETRQVMLQKYEEEGLEQLCAELRLLDPDYYRIVDLKNPKRVIHALEICYMTGKTYTSFRTQQKKERPFRILKIGLTRDREELYDRINRRVDQMMEEGLLDEVRSVLSYRHLNSLNTVGYKELFKYLDGEWELPFAIEKIKQNSRIYSRKQMTWFKRDEEIRWFHPEQETEILEYLRLQNLTHLPSLDTFLEHHHHHH”, “not failed”; under “MPTLKSYFLKDTSLRTEILAGATTFLTMVYIVFVNPKVLHDAGMDQGAVFTATCLITAFACALTGFIANTPIGVAPSVALNIYFSYSVVQGMGVDWQHALAMVFISGLLFLFLTLTKLRRLLVEAIPHNLQIAIVIGISLLIALIALENNQIIIGDQHNLMRLGSIIRPETGLFFLGFILILTLDYHKIPGAIIIGILSISVLSLILGLTSWQGLIAMPPSLEPTFLQLDFSGLSSIVALKTIFTFFLITVFDATGSLIGLLSPTIFKHEKNYYKRLTRSLTADAAASSLAGLMGSASTSPYIESATGIEAGGRTGLTALVIATGFILMLFLFPLAKMIPSFAVGPALLYVACCMIKHITNMKLQDITETAPCMVIIMMVPFTASIADGIGLGIILYTLLKLFTRQKPNPLIIVLSLVFTVFFLIN”, “failed”.
“MPTPAPSADSTAERRHREKDTPLHRAARRGDADAVRELLARGAEIDALDDKGRTPYRLALDAGHPEIARWLAAAGADRHRSAAGTPGESEKRPRHPPSRLSSKDGIDGYPGWPALTVAAWRGHASTVETLLARGADVAARAPDGHTPLTRAAWNGHAGIVKILLAHGAEADVATPDGRTALMWAAREGHGEVVAVLAAAGARLDATDGDGNTALSWAAQRGKATTVRVLCSLGAATGVARKDGRTPIMLAALGGHPESVEVLLAASADPNATDADGHTALWHAVDGGHSGIVEILLAHGASFDRDRAPGHDALARAAWKGDEKTAGLLLAYGARVDAPSGDGNTALAVAAGRGHAGVIRLLLRKGANPDRRNRRNMTALMLAAQAGHSETVAALLEAGADPTLRNRHRHTAVSLARAGGHEDCVKILEKHRVGRRTLLGFLW”: the protein production result was “failed”.
Under “MPTPGTGSVPELQLVPFQLGHFPILQRWFATEKELVQWAGPALRHPLSLEQMHEDLAESRRRPPLRLLWSACRDDQVIGHCQLLFDRRNGVVRLARIVLAPSARGQGLGLPMLEALLAEAFADADIERVELNVYDWNAAARHLYRRAGFREEGLRRSATRVGRERWNVVLMGLLRQEWAAGGAGND” stands “not failed”; under “MPTPRPEPAAPPGNNQAGPPAGGPIISPTDLIAIQPPRAVAGDFVPDEVLVTVDGDAGAVQQIAASFGLEVRSQRQSRLLGTTLVRFGIPDGRPVGVVLAQLAADGRTQRREPNHIYSLQQAAGIVNYAFDRIALDAKQASGENIRVAVIDTGIDDTNPALAGVIAAQFDAMPGVPVEKRDHGTSIDGLIAGVGALEGMAPGARIYHARAFEGGKSTMDVILSALDWAAEQNVSIINMSFVGPKNDLLGAACRNARALGMVLVAAAGNNGPKAPYGYPAAFDGVIAVTATDAKDALMPQANRGAYVFISAPGVEMVAPSGAGSDVVTGTSFAAAIVSGAIANLLHASPGRTADDIEKALAATAKDLGPKGRDNDFGYGLLDIKAAEAAKE”, “failed”; under “MPVSIFMTVVNKSGVLARVTAEIAKADSNIDDITLENDKDYTTMRFILQTRDRQHLAQIFRRLKHIDEIVKMGRIKNLLEHHHHHH”, “not failed”.
